Experimental data reported in patent US20140044738A1 (AstraZeneca / MedImmune, published 2014).
Substitutions are numbered along the chain they refer to. One block for each molecule: values may come before it.

Experiments:
[1] = biological target: human PD-1, full length, expressed on the cell surface (human) (UniProt Q15116); experiment: flow cytometry: human primary CD8 T cells, CD45RA med; PD-1 as the cells express it
[2] = biological target: human PD-1, full length, expressed on the cell surface (human) (UniProt Q15116); experiment: flow cytometry: human primary CD8 T cells, CD45RA low; PD-1 as the cells express it
[3] = biological target: human PD-1, full length, expressed on the cell surface (human) (UniProt Q15116); experiment: flow cytometry: human primary CD4 T cells, CD45RA low; PD-1 as the cells express it
[4] = biological target: human PD-1, full length, expressed on the cell surface (human) (UniProt Q15116); experiment: flow cytometry: human primary CD4 T cells, CD45RA high; PD-1 as the cells express it
[5] = biological target: human PD-1, full length, expressed on the cell surface (human) (UniProt Q15116); experiment: flow cytometry: human primary CD4 T cells, CD45RA med; PD-1 as the cells express it
[6] = biological target: human PD-1, full length, expressed on the cell surface (human) (UniProt Q15116); experiment: flow cytometry: human primary CD8 T cells, CD45RA high; PD-1 as the cells express it
[7] = biological target: T1, human B7-H1, full length, expressed on the cell surface (human, UniProt Q9NZQ7 19-290); experiment: flow cytometry on CHO cells expressing human B7-H1, median fluorescence intensity
T1 construct: whole, on cells; also called CHO-hB7-H1; CHO-B7-H1 cells
T1 sequence (Q9NZQ7 19-290): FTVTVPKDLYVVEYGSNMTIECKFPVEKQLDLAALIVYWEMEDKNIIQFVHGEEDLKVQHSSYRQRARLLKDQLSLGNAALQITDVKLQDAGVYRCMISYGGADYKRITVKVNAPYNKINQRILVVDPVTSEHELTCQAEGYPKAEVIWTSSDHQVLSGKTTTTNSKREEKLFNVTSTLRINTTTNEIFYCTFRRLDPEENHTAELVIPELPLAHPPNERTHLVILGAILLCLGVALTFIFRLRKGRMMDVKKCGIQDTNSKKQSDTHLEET

[8] = biological target: T2, human PD-1, full length, expressed on the cell surface (human, UniProt Q15116 25-288); experiment: cell-based competition: CHO-hPD1 cells, antibody 30 min, then 10 µg/ml APC-labeled B7-DC-Fc; axis 100 to 0 without a unit (text: 0-0.1 mg/ml)
T2 construct: whole, on cells; also called CHO-hPD-1; CHO-hPD1
T2 sequence (Q15116 25-288): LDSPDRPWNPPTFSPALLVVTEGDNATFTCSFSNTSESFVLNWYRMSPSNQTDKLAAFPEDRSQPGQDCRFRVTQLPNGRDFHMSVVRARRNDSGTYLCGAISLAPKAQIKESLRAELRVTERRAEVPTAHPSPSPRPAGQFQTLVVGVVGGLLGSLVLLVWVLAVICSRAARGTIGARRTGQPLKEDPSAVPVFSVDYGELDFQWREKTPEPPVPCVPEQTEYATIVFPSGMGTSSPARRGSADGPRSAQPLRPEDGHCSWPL
Description: A cell-based competition assay was performed by incubating 50,000 CHO-hPD1 cells for 30 minutes with anti-PD-1 antibody (present at concentrations ranging from 0-0.1 mg/ml). […] The competition was repeated at a fixed antibody concentration of 20 μg/mL (FIG. 11).

human PD-1-Fc [9] = biological target: T3, human PD-1-Fc (human, UniProt Q15116 25-167, limits assumed, biotinylated in the B7-DC blocking ELISA); experiment: ELISA: hybridoma supernatant on immobilised rhPD-1/Fc, anti-mouse IgG
T3 construct: also called hPD-1-Fc; biotinylated PD-1-Fc
T3 sequence (Q15116 25-167 limits assumed): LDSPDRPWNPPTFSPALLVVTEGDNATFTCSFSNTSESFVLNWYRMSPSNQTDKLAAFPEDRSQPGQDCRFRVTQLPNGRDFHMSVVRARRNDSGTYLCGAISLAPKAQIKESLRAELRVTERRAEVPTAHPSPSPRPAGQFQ
Description: Splenocytes from anti-PD-1 positive animals were fused with myeloma cells following standard protocol. The resulting murine hybridomas were screened for those that express high affinity human PD-1-immunoreactive monoclonal antibodies. Antibodies were additionally evaluated to determine whether they were IgG or IgM antibodies. […] Hybridoma supernatants were then placed in contact with the support, and the presence of anti-PD-1 antibody was determined using labeled anti-mouse IgG or anti-mouse IgM.

[10] = biological target: human PD-1, full length, expressed on the cell surface (human) (UniProt Q15116); experiment: flow cytometry: CHO cells with full-length human PD-1 pre-incubated with Ctl Ig, then hB7-DC mIg + a-mIg-APC; a-mIg-APC alone MFI=10
[11] = biological target: T2, human PD-1, full length, expressed on …; experiment: cell-based or functional assay
[12] = biological target: T4, human PD-1 (form in the assay not stated) (human, UniProt Q15116 25-167, limits assumed); experiment: PD-1-specific binding at 0 to approximately 350 nM antibody (FIG. 20); format not stated
T4 construct: Used for the kinetic constants and EC50 values whose assay format is not described
T4 sequence (Q15116 25-167 limits assumed): as above

[13] = biological target: T4, human PD-1 (form in the assay not …); experiment: method not stated
human PD-1-Fc [14] = biological target: T3, human PD-1-Fc; experiment: blocking, flow cytometry, by paragraph 273: the construct binds hPD-1-Fc and blocks its binding to hB7-H1 expressed by CHO cells (the legend paragraph 64 calls it a binding curve on CHO.hPD-1 cells; the curve falls); set-up: unit not given here

Sequence of human PD-1, full length, expressed on the cell surface (human) (Q15116 25-288): as the sequence (Q15116 25-288) above

number over the gate of positive cells [1]: 1.6
number over the gate of positive cells [2]: 1.6
number over the gate of positive cells [3]: 2.1
number over the gate of positive cells [4]: 1.4
number over the gate of positive cells [5]: 1.1
number over the gate of positive cells [6]: 1.5
Molecule: SYNAGIS (antibody)

MFI [7]: 59600
B1: Anti-Human B7-H1 Clone 3B6 (antibody, V domains shown)
VL: DIVMTQSPAIMSASPGEKVTMTCSASSSIRYMHWYQQKPGTSPKRWISDTSKLTSGVPARFSGSGSGTSYALTISSMEAEDAATYYCHQRSSYPWTFGGGTKLEIK
V domain: EVKLQESGPSLVKPGASVKLSCKASGYTFTSYDINWVKQRPGQGLEWIGWIFPRDNNTKYNENFKGKATLTVDTSSTTAYMELHSLTSEDSAVYFCTKENWVGDFDYWGQGTTLTLSS
notes: Murine hybridoma IgG

binding result [8]: binds
binding result (human PD-1-Fc [9]): binds
B2: Anti-Human PD-1 Clone 1E3 (antibody, IgG1, V domains shown)
VH: EVQLQQSGPVLVKPGASVKMSCKASGYTFTDYYMNWVKQSHGKSLEWIGNINPYNGGTTYNQKFKGKATLTVDKSSRTAYMEINSLTSEDSAVYYCARGRIYDGSLDYWGQGTALTVSS
VL: DIQMTQFPSSLCASQGGKVTVTCKASQDINNYMAWYQHKPGKGPRLLIHYTSTLLSGIPSRFSGSGSGRDYSFSISNLEPEDIATYYCLQYDNLWTFGGGTKLEIK
notes: Murine hybridoma antibody, IgG1/kappa

MFI [10]: 2930
B3: B7-DC-Fc (Fc fusion, part only; not given: Fc part, human, UniProt Q9BQ51 20-220, looked up, part only)
chain, part: LFTVTVPKELYIIEHGSNVTLECNFDTGSHVNLGAITASLQKVENDTSPHRERATLLEEQLPLGKASFHIPQVQVRDEGQYQCIIIYGVAWDYKYLTLKVKASYRKINTHILKVPETDEVELTCQATGYPLAEVSWPNVSVPANTSHSRTPEGLYQVTSVLRLKPPPGRNFSCVFWNTHVRELTLASIDLQSQMEPRTHPT
modifications: APC-labeled or biotinylated in the cell-based assays

T cell proliferation [11]: ~7 fold
EC50 [12]: 3 nM
Kd [13]: 2.19 nM
koff [13]: 0.000161 s⁻¹
kon [13]: 73400 M⁻¹ s⁻¹
IC50 (read off the curve) (human PD-1-Fc [14]): ~100
B4: 1H3 Construct (chimeric murine anti-human PD-1 Fab regions of antibody 1H3 and a human IgG1 Fc region) (antibody, V domains shown)
VH: EVQLVESGGGLVKPGGSLKLSCAASGFTFSDYGMHWVRQAPEKGLEWVAYISSGSYTIYYTDTVKGRFTISRDNAKNTLFLQMTSLRSEDTAMYYCARRGYGSFYEYYFDYWGQGTTLTVSS
VL: QIVLTQSPALMSASPGEKVTMTCSASSSVSYMYWYQQKPRSSPKPWIYLTSNLASGVPARFSGSGSGTSYSLTISSMEAEDAATYYCQQWSSNPFTFGSGTKLEIK
notes: also called 1H3 anti-human PD-1 chimeric antibody; chimeric 1H3

EC50 [12]: 3 nM
B5: h1H3 Var 2 (antibody, V domains shown)
VH: B4 VH with K13Q, K19R, E42G, T61A, T63S, F80Y, T84S, S88A, M93V, L118V
VL: EIVLTQSPATLSLSPGERATLSCRASSSVSYMYWYQQKPGQAPRLLIYLASNRATGIPARFSGSGSGTDYTLTISSLEPEDFAVYYCQQWSSNPFTFGQGTKLEIK
notes: Humanized variable domains LC1_1 / HC1_2

EC50 [12]: 6 nM
B6: h1H3 Var 1 (antibody, V domains shown)
VH: EVQLVESGGGLVQPGGSLRLSCAASGFTFSDYGMHWVRQAPGKGLEWVSYISSGSSTIYYADSVKGRFTISRDNAKNTLYLQMSSLRAEDTAVYYCARRGYGSFYEYYFDYWGQGTTVTVSS
VL: B5 VL
notes: Humanized variable domains LC1_1 / HC1_1

EC50 [12]: 3 nM
B7: h1H3 Var 3 (antibody, V domains shown)
VH: B6 VH with S49A, S56Y, Y60S
VL: B5 VL
notes: Humanized variable domains LC1_1 / HC1_3

EC50 [12]: 3 nM
B8: h1H3 Var 5 (antibody, V domains shown)
VH: B6 VH with S49A, S56Y
VL: B5 VL with E1Q, R24S, A50T
notes: Humanized variable domains LC1_2 / HC1_2

EC50 [12]: 6 nM
B9: h1H3 Var 4 (antibody, V domains shown)
VH: B6 VH
VL: B5 VL with E1Q, R24S, A50T
notes: Humanized variable domains LC1_2 / HC1_1

EC50 [12]: 3 nM
B10: h1H3 Var 6 (antibody, V domains shown)
VH: B6 VH with S49A, S56Y, Y60S
VL: B5 VL with E1Q, R24S, A50T
notes: Humanized variable domains LC1_2 / HC1_3

MFI [7]: 56200
B11: Anti-Human B7-H1 Clone 1E12 (antibody, V domains shown)
VH: EVKLQESGPSLVKPSQTLSLTCSVTGYSITSDYWNWIRKFPGNKLEYVGYISYTGSTYYNPSLKSRISITRDTSKNQYYLQLNSVTSEDTATYYCARYGGWLSPFDYWGQGTTLTVSS
VL: DIVMTQSHKLMSTSVGDRVSITCKASQDVGTAVAWYQQKPGQSPKLLIYWASTRHTGVPDRFTGSGSGTDFTLTISNVQSEDLADYFCQQDSSYPLTFGAGTKVELK
notes: Murine hybridoma IgG

MFI [7]: 62000
B12: Anti-Human B7-H1 Clone 1F4 (antibody, V domains shown)
VH: EVQLQESGPGLVAPSQSLSITCTVSGFSLTTYSINWIRQPPGKGLEWLGVMWAGGGTNSNSVLKSRLIISKDNSKSQVFLKMNSLQTDDTARYYCARYYGNSPYYAIDYWGQGTSVTVSS
VL: B11 VL with M4T
notes: Murine hybridoma IgG

MFI [7]: 53100
B13: Anti-Human B7-H1 Clone 3D10 (antibody, V domains shown)
VH: EVQLQQSGPDLVTPGASVRISCQASGYTFPDYYMNWVKQSHGKSLEWIGDIDPNYGGTTYNQKFKGKAILTVDRSSSTAYMELRSLTSEDSAVYYCARGALTDWGQGTSLTVSS
VL: QIVLSQSPAILSASPGEKVTMTCRASSSVSYIYWFQQKPGSSPKPWIYATFNLASGVPARFSGSGSGTSYSLTISRVETEDAATYYCQQWSNNPLTFGAGTKLELK
notes: Murine hybridoma IgG
